# Values of other authors as cited in PMC5724930.
# Like-named read-outs stand apart in the source and are kept apart here.
# Tests used:
# [1] = target: proPanD (Escherichia coli) (UniProt P0A790)
# [2] = target: proPanD (Escherichia coli) (UniProt P0A790); remark: listed apart in the source
# proPanD (Escherichia coli), sequence (P0A790 whole entry): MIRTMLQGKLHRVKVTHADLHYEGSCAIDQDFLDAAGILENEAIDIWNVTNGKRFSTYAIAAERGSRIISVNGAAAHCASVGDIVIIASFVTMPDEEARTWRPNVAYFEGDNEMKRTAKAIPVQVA
# PanZ, sequence (P37613 whole entry): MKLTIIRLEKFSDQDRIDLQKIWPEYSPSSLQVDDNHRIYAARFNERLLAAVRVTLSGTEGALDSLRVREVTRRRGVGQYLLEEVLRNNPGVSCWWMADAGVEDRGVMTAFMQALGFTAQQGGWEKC
substance,measurement,setting,value
PanZ (from UniProt P37613),Kd,[1],100 nM
same,Kd,[2],4000 nM
